Assay results: US20050260219A1, “Carboxypeptidases B from anopheles gambiae. compositions comprising them, vaccine applications and use as therapeutical targets” (INSTITUT PASTEUR, priority 2004, published 2005)
Values joined by “and” are separate entries in the source; they are usually repeats but may differ in a detail not shown here. Equal values may be shown once. Marks after values point to notes of the source that are not given here.

B1: recombinant CPBAg1 (Anopheles gambiae) (protein)
chain: GSYHEFELYNVRPETAEQLSVLLKWRNGQEIEVDFWDAPKVGRSARLMVTREDHKRVEEFLEQHDIEYDLVAEDVQELLNREQRRNVEHGRRLRRDSNSRATVNFEHFWTLDEIYEYLDELAVAYNGLVRVSEIGRTHEDRPIKAITISTRGAVDQTRPIVFMDGGIHAREWAGVMSVMYMIHEFVEHSDQYAEQLSNTDYVIVPVANPDGYVYTHEQNRLWRKNRSPGNVLCYGVDLNRNFPFQWDRTTSECTNNFAGHAASSENETKALIGLMDQYKAAIRMYLAVHTYGEMILWPWGYDFLHAPNEDDLQRLGERARDALVAAGGPEYEVGNSADILYTASGATDDYAYSLGVPYSYTLELTGGGSQGFDLPAAELARVTSQTFELLKVFGQHAGTLSVTS
B2: CPBAg1: recombinant His-tagged An. gambiae carboxypeptidase B (SEQ ID NO: 2) from baculovirus/insect cells, used to immunize mice (protein, listed as Anopheles gambiae)
chain: MKRLTFVTGCLLALAFAKAGSYHEFELYNVRPETAEQLSVLLKWRNGQEIEVDFWDAPKVGRSARLMVTREDHKRVEEFLEQHDIEYDLVAEDVQELLNREQRRNVEHGRRLRRDSNSRATVNFEHFWTLDEIYEYLDELAVAYNGLVRVSEIGRTHEDRPIKAITISTRGAVDQTRPIVFMDGGIHAREWAGVMSVMYMIHEFVEHSDQYAEQLSNTDYVIVPVANPDGYVYTHEQNRLWRKNRSPGNVLCYGVDLNRNFPFQWDRTTSECTNNFAGHAASSENETKALIGLMDQYKAAIRMYLAVHTYGEMILWPWGYDFLHAPNEDDLQRLGERARDALVAAGGPEYEVGNSADILYTASGATDDYAYSLGVPYSYTLELTGGGSQGFDLPAAELARVTSQTFELLKVFGQHAGTLSVTS
modifications: His tag

Experiments:
[1] = substrate: N=C(N)NCCC[C@H](NC(=O)CNC(=O)c1ccccc1)C(=O)O; experiment: Carboxypeptidase activity assay on recombinant CPBAg1 with di-peptide substrates; type: biochemical, Anopheles gambiae; settings: other: hydrolysis of Hip-Arg, Michaelis-Menten, 0.02-10 mM substrate; pH 7.2; 25.0 °C
Protocol: Carboxypeptidase activity was determined using the synthetic di-peptide substrates Hippuryl-Arginine (Hip-Arg), Hippuryl-Lysine (Hip-Lys) as carboxypeptidase B substrates and Hippuryl-Phenylalanine (Hip-Phe) as carboxypeptidase A substrate. All reagents were purchased from Sigma. Activities were assayed in 20 μl E buffer (100 mM NaCl/50 mM Hepes/100 μM ZnCl2 pH 7.2) containing 1 mM Hip-Arg, Hip-Lys or Hip-Phe. The reaction was initiated by adding an equal volume of His-tagged CPBAg1 (5 ng/μl in E buffer), incubated at 25° C. for 10-40 min, and stopped by the addition of 20 μl Ninhydrin reagent (Sigma, Lyon, France). The rate of the reaction was measured by estimating the amount of released amino acids using the ninhydrin procedure (60). One unit of enzyme activity was defined as μmol of amino acids released/min.
Estimation of Km and kcat was carried out after assays over a 500-fold range of Hip-Arg concentration (0.02-10 mM). Each concentration was assayed in triplicate. The kinetic parameters were derived from iterative non-linear least square fits of the Michaelis-Menten equation using the experimental data (61). Confidence limits for the fitted values were determined by 100 Monte Carlo iterations using the experimental standard deviations on individual measurements. […]

[2] = system: P. berghei PbGFPCON ANKA strain; experiment: Effect of CPBAg1 immunized mice sera on parasite development (GFP-expressing P. berghei); type: in vivo, Plasmodium berghei
Protocol: Intensity of infection (number of parasites per positive midgut) by P. berghei was scored by detection of GFP-expressing parasites in midguts of mosquitoes fed on control (black bars) and immunized mice (grey bars). Gametocytemia was determined just before feeding by Giemsa staining of thin smears and by GFP fluorescence detection. Mosquitoes were dissected at 3 h, 24 h, 48 h and 9 days after blood feeding to visualize zygotes (Zyg), ookinetes (Ook), young oocysts (Ooc 48 h) and mature oocysts (Ooc day 9), respectively. Geometric mean intensity for six immunized mice was plotted as % of that for six control mice set at 100%. The table indicates the geometric mean number of parasite per midgut at each parasite life stages.
To assess the effect of anti-CPBAg1 sera on parasite development, a new group of six mice was immunized as described above and six control mice were injected with PBS/adjuvant. […] On day 3 after P. berghei inoculation, gametocytemia were determined by Giemsa staining of thin blood smears and by GFP fluorescence detection. […] Intensity of infection was scored by counting the number of zygotes and ookinetes within the mosquito midgut content, and the number of oocysts on the midgut wall. GFP fluorescence was visualized using GFP filter settings with a Zeiss Axiovert 25 fluorescence microscope.

P. berghei = experiment: Transmission-blocking assays: An. gambiae fed on CPBAg1 immunized, P. berghei infected mice; type: in vivo, Plasmodium berghei; settings: for Mean no. of oocysts (range): per positive midgut, day 9-11; for % of reduction R: infected mosquitoes fed on immunized versus control mice
Protocol: Immunizations were performed with a recombinant CPBAg1 protein expressed in insect cells using the baculovirus expression system. Eleven 3- to 4-week-old female Swiss outbred mice (CERJ, Le Genest St-Isle, France) were injected subcutaneously with 20 μg of recombinant CPBAg1 in sterile PBS, emulsified with complete Freund's adjuvant (Sigma). Eleven control mice were injected simultaneously with sterile PBS/adjuvant following the same protocol. On day 21 post-immunization, eight immunized mice and eight control mice (group 1) were challenged with P. berghei for transmission blocking assays (see below). The three other immunized mice were boosted with 10 μg of recombinant CPBAg1 formulated in incomplete Freund's adjuvant (Sigma) and the three other control mice were injected simultaneously with sterile PBS/incomplete adjuvant. These six mice, which constituted group 2, were challenged with P. berghei 21 days after the booster immunization. Sera from immunized and control mice of both groups were prepared from 100 μl blood samples collected the same day as mosquito feeding (24 days after the first and booster immunizations).
On day 21 after the first and booster immunizations, mice were peritoneally inoculated with the P. berghei ANKA strain 2.34. On day 3 after P. berghei inoculation, parasitemia and gametocytemia were determined using Giemsa stained thin blood smears, and the mice were used for mosquito feeding. In group 1, parasitemia and gametocytemia ranged from 3.2% to 6.2% and from 6,500 to 11,500 gametocytes/μl for control mice, whereas they ranged from 3% to 7.4% and from 7,500 to 13,500 gametocytes/μl for immunized mice. In group 2, they ranged from 2% to 2.9% and from 2,000 to 4,000 gametocytes/μl for control mice, whereas they ranged from 1.5% to 3.6% and from 1,000 to 2,000 gametocytes/μl for immunized mice. Each mouse was placed onto a netted cage containing 50 starved 5-day-old An. gambiae females and feeding was carried out for 15 minutes at 21° C. After mosquito feeding, mice were bled to collect sera for ELISAs experiments and fully engorged mosquito females were maintained at 21° C., 80% humidity, until dissections. Rate of infection (number of infected mosquitoes/number of dissected mosquitoes) and intensity of infection (mean number of oocysts per positive midgut) were scored on day 9-11 after blood feeding by detection of oocysts on the mosquito midgut wall.
For the data reported in Table 7 below, An. gambiae were fed on control or immunized mice from group 1 (after primary immunization) and group 2 (after booster immunization). Proportion of infected mosquitoes (rate of infection) and mean number of oocysts per positive midgut (intensity of infection) were determined on day 9-11 post feeding. R: % reduction was calculated as R %=100×[1−(% infected mosquitoes fed on immunized mice/% infected mosquitoes fed on control mice)], using the mean value from each experimental group.

CPBAg1 = CPBAg1 specific ELISA titers in sera from immunized mice; type: in vivo; settings: Swiss mice
Protocol: Specific antibody titers against CPBAg1 were measured in duplicates for each mice by ELISA three weeks after the first (group 1) and the booster (group 2) immunization. The average reading at O.D. 490 nm of each group was plotted against the reciprocal sera dilution. End points were defined as the highest serial dilutions yielding an absorbance reading at 490 nm greater than 0.5. (Δ) and (□) show antibody titers from group 1 and 2 respectively in sera from immunized mice. (▴) and (▪) show antibody titers from group 1 and 2 respectively in sera from control mice.
Immunizations were performed with a recombinant CPBAg1 protein expressed in insect cells using the baculovirus expression system. Eleven 3- to 4-week-old female Swiss outbred mice (CERJ, Le Genest St-Isle, France) were injected subcutaneously with 20 μg of recombinant CPBAg1 in sterile PBS, emulsified with complete Freund's adjuvant (Sigma). […]
Microtiter plates (Immuno-plate Maxisorp, Nunc) were coated with 50 ng/well of CPBAg1 in PBS, overnight at 4° C., and saturated with 100 μl/well 0.5% gelatine (Sigma) in PBS for 1 h. […] After 10 min. incubation, the reaction was stopped with 50 μl 3N HCl and absorbance was measured at 490 nm using a microplate reader (Molecular Devices). Serum dilutions at an absorbance value of 0.5 were designated as the endpoint of ELISA titers.

| Molecule | Km [1] | reduction of mean infection intensity versus mosquitoes fed on control mice ([2]; 3 h PBM (zygotes)) | reduction of mean infection intensity versus mosquitoes fed on control mice ([2]; day 9 PBM (mature oocysts)) | Rate of infection % (number of dissected mosquitoes) (P. berghei; Group 1 (primary immunization), individual immunized mice Im 1-Im 8, day 9-11 post feeding) | Mean no. of oocysts (range) (P. berghei; Group 1, individual immunized mice Im 1-Im 8) | % of reduction R (P. berghei; Group 1) | Rate of infection % (number of dissected mosquitoes) (P. berghei; Group 2 (booster immunization), individual immunized mice Im 9-Im 11, day 9-11 post feeding) | Mean no. of oocysts (range) (P. berghei; Group 2, individual immunized mice Im 9-Im 11) | % of reduction R (P. berghei; Group 2) | Mean no. of oocysts (P. berghei; Mean Group 1, immunized mice) | Rate of infection % (number of dissected mosquitoes) (P. berghei; Mean Group 1, immunized mice) | Mean no. of oocysts (P. berghei; Mean Group 2, immunized mice) | Rate of infection % (number of dissected mosquitoes) (P. berghei; Mean Group 2, immunized mice) | endpoint titer of specific anti-CPBAg1 antibodies (CPBAg1; group 1: single injection of 20 μg in complete Freund's adjuvant, 24 days after immunization) | endpoint titer of specific anti-CPBAg1 antibodies (CPBAg1; group 2: second injection on day 21) |
| --- | --- | --- | --- | --- | --- | --- | --- | --- | --- | --- | --- | --- | --- | --- | --- |
| B1 | 2590 µM |  |  |  |  |  |  |  |  |  |  |  |  |  |  |
| B2 |  | 40% | 65% | 9.4 (32)* % and 0 (20)* % and 43.3 (30)* % and 31.2 (32)* % and 41.2 (17)* % and 38.8 (18)* % and 50 (30)* % and 10.5 (38)* % | 2.5 (1-5)* and 0* and 7.16 (1-56) and 3.7 (1-70) and 5.4 (1-27) and 5.8 (1-32) and 6.7 (1-117) and 3.3 (1-15) | 63% and 63.2% | 77.4 (31)* % and 26.6 (30)* % and 36.6 (30)* % | 23.7 (1-120) and 6.2 (3-10)* and 24.3 (6-100) | 51% and 50.6% | 5.3 | 28.1 (217)* % | 18.6* | 47.2 (91)* % | ~12,150 | ~36,450 |
